In publication PMC7954794, “Protein context shapes the specificity of SH3 domain-mediated interactions in vivo” (Nature Communications, 2021):

Test system: growth of yeast strains under 51 stress conditions
Experiment: Growth assays in 51 stress conditions (Fig. 1E-F, S2D, S5B)
Assay type: cell-based, Saccharomyces cerevisiae
Set-up: key to Growth (Fig. S2D) / growth of ABP1 SH3-swapped strains in stress condition: log2 colony size, average of median per strain (growth score)
Details: ABP1 SH3-swapped strains
Outline: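 Yeast WT, SH3-deleted, KO, SH3-swapped and SH3-shuffled strains pinned in 1536 format, 12 replicates each; pregrown on YPD 2 days at 30 °C, then replicated onto 51 media at 37 °C and imaged every 2 h. Growth score = mean of per-plate median log2 colony size at 74 h.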

B1: FUS1 (protein, UniProt P11710 1-512, looked up)
Nuclear fusion protein FUS1: MVATIMQTTTTVLTTVAAMSTTLASNYISSQASSSTSVTTVTTIATSIRSTPSNLLFSNVAAQPKSSSASTIGLSIGLPIGIFCFGLLILLCYFYLKRNSVSISNPPMSATIPREEEYCRRTNWFSRLFWQSKCEDQNSYSNRDIEKYNDTQWTSGDNMSSKIQYKISKPIIPQHILTPKKTVKNPYAWSGKNISLDPKVNEMEEEKVVDAFLYTKPPNIVHIESSMPSYNDLPSQKTVSSKKTALKTSEKWSYESPLSRWFLRGSTYFKDYGLSKTSLKTPTGAPQLKQMKMLSRISKGYFNESDIMPDERSPILEYNNTPLDANDSVNNLGNTTPDSQITSYRNNNIDLITARPHSVIYGTTAQQTLETNFNDHHDCNKSTEKHELIIPTPSKPLKKRKKRRQSKMYQHLQHLSRSKPLPLTPNSKYNGEASVQLGKTYTVIQDYEPRLTDEIRISLGEKVKILATHTDGWCLVEKCNTQKGSIHVSVDDKRYLNEDRGIVPGDCLQEYD
- Growth (Fig. S2D) (Bathophenanthroline.0.1uM): 10.7893
- Growth (Fig. S2D) (Bathophenanthroline.10uM): 10.6947
- Growth (Fig. S2D) (Bathophenanthroline.1uM): 10.778
- Growth (Fig. S2D) (CaCl2.100mM): 10.8206
- Growth (Fig. S2D) (CaCl2.250mM): 10.8008
- Growth (Fig. S2D) (CaCl2.500mM): 10.319
- Growth (Fig. S2D) (Caffein.10mM): 10.109
- Growth (Fig. S2D) (Caffein.2mM): 11.0074
- Growth (Fig. S2D) (CdCl2.100uM): 9.381
- Growth (Fig. S2D) (CdCl2.10uM): 10.9194
- Growth (Fig. S2D) (CdCl2.50uM): 9.89
- Growth (Fig. S2D) (CuSO4.1mM): 10.4955
- Growth (Fig. S2D) (CuSO4.5mM): 8.084
- Growth (Fig. S2D) (Cycloheximide.0.05.uM): 11.1072
- Growth (Fig. S2D) (Cycloheximide.0.2.uM): 10.666
- Growth (Fig. S2D) (Cycloheximide.0.5.uM): 10.227
- Growth (Fig. S2D) (DMSO.2.): 11.051
- Growth (Fig. S2D) (DMSO.6.): 9.944
- Growth (Fig. S2D) (DMSO.8.): 9.179
- Growth (Fig. S2D) (Ethanol.2.): 10.7876
- Growth (Fig. S2D) (Ethanol.6.): 10.3273
- Growth (Fig. S2D) (Ethanol.8.): 10.1194
- Growth (Fig. S2D) (Galactose.2.): 10.7919
- Growth (Fig. S2D) (Glycerol.2.): 9.646
- Growth (Fig. S2D) (Hydroxyurea.25mM): 10.8071
- Growth (Fig. S2D) (Hygromycin.190uM): 11.0027
- Growth (Fig. S2D) (Hygromycin.19uM): 11.0061
- Growth (Fig. S2D) (Hygromycin.95uM): 11.0532
- Growth (Fig. S2D) (MMS.0.004.): 10.9625
- Growth (Fig. S2D) (MMS.0.02.): 10.7139
- Growth (Fig. S2D) (MMS.0.04.): 10.0597
- Growth (Fig. S2D) (Menadione.100uM): 10.6065
- Growth (Fig. S2D) (Menadione.200uM): 10.4266
- Growth (Fig. S2D) (Menadione.50uM): 10.8061
- Growth (Fig. S2D) (NaCl.0.25M): 10.6954
- Growth (Fig. S2D) (NaCl.1M): 9.8389
- Growth (Fig. S2D) (Nitroquinoline.10uM): 10.6415
- Growth (Fig. S2D) (Nitroquinoline.50uM): 10.6237
- Growth (Fig. S2D) (Nystatin.0.01uM): 11.0226
- Growth (Fig. S2D) (Nystatin.0.1uM): 11.0679
- Growth (Fig. S2D) (Raffinose.2.): 11.0059
- Growth (Fig. S2D) (Rapamycin.10nM): 9.886
- Growth (Fig. S2D) (Rapamycin.50nM): 9.356
- Growth (Fig. S2D) (SC.pH3): 10.3927
- Growth (Fig. S2D) (SC.pH6): 11.04
- Growth (Fig. S2D) (SDS.0.01.): 10.9614
- Growth (Fig. S2D) (SDS.0.02.): 10.9777
- Growth (Fig. S2D) (SDS.0.05.): 10.8408
- Growth (Fig. S2D) (Sorbitol.10mM): 10.9835
- Growth (Fig. S2D) (Sorbitol.1mM): 11.0132
- Growth (Fig. S2D) (Sorbitol.5mM): 10.8904

B2: HOF1 (protein, UniProt Q05080 1-669, looked up)
Cytokinesis protein 2: MSYSYEACFWDPNDNGVNILLGHISQGIRSCDSMILFFKQRSELEKDYARRLGAITGKLDKDIGTNMDYGKLNETFNVVLSVEKARAQSHSKQSEILFRQIYTDTKAFAANLQARYTTLSGKIERLRMDKFNKKKGCEVLQKKLQDAQIRFRDLQLNENNMIGAKRVEHNKRELLKWESNSQEYKVQLDVLKQEYKASQKFWIHEWAQLSCELQEMENARISFLQSKLQQFATSSMETYILEQTKMDMLTNHLNSFTAADEISTFSKENGTGRLKHKTSKGDMNSSANWAQMSSISTTSKKTESYMDNIRKLSSQLKETENKRKLASIDKYEKPLPSPEVTMATQFRNSTPVIRNETKVVANPTLSLRSSPVQLQSNVDDSVLRQKPDKPRPIVGEEQLKPDEDSKNPDEKGLMVHKRNQSLSSPSESSSSNPTDFSHIKKRQSMESMTTSVSSMANSIDDSQRFAKSWNSSNRKRKSMSHLQVPSSASSRSDDGGRTPNSAHNLNEDDYNTRRDTSTSTILFKPPVAVRGTSRGHTHRQSMIMQDSSNPIEDALYEMERIQSSSKPGTKTGNIMDERGVVRDRGITVTLPIVTSEGFPVIEYAKAMYPLIGNEAPGLANFHKGDYLLITEIVNKDWYKGEVYDNDRIDRNHRIGLIPYNFIQLLHQGL
- Growth (Fig. S2D) (Bathophenanthroline.0.1uM): 10.8727
- Growth (Fig. S2D) (Bathophenanthroline.10uM): 10.6716
- Growth (Fig. S2D) (Bathophenanthroline.1uM): 10.8166
- Growth (Fig. S2D) (CaCl2.100mM): 10.8864
- Growth (Fig. S2D) (CaCl2.250mM): 10.8461
- Growth (Fig. S2D) (CaCl2.500mM): 10.3385
- Growth (Fig. S2D) (Caffein.10mM): 10.1794
- Growth (Fig. S2D) (Caffein.2mM): 11.0235
- Growth (Fig. S2D) (CdCl2.100uM): 9.561
- Growth (Fig. S2D) (CdCl2.10uM): 10.9284
- Growth (Fig. S2D) (CdCl2.50uM): 9.924
- Growth (Fig. S2D) (CuSO4.1mM): 10.5096
- Growth (Fig. S2D) (CuSO4.5mM): 8.102
- Growth (Fig. S2D) (Cycloheximide.0.05.uM): 11.0987
- Growth (Fig. S2D) (Cycloheximide.0.2.uM): 10.6706
- Growth (Fig. S2D) (Cycloheximide.0.5.uM): 10.177
- Growth (Fig. S2D) (DMSO.2.): 11.0794
- Growth (Fig. S2D) (DMSO.6.): 9.956
- Growth (Fig. S2D) (DMSO.8.): 9.269
- Growth (Fig. S2D) (Ethanol.2.): 10.828
- Growth (Fig. S2D) (Ethanol.6.): 10.3088
- Growth (Fig. S2D) (Ethanol.8.): 10.1098
- Growth (Fig. S2D) (Galactose.2.): 10.8257
- Growth (Fig. S2D) (Glycerol.2.): 9.711
- Growth (Fig. S2D) (Hydroxyurea.25mM): 10.8274
- Growth (Fig. S2D) (Hygromycin.190uM): 11.0188
- Growth (Fig. S2D) (Hygromycin.19uM): 11.0238
- Growth (Fig. S2D) (Hygromycin.95uM): 11.0846
- Growth (Fig. S2D) (MMS.0.004.): 10.9957
- Growth (Fig. S2D) (MMS.0.02.): 10.7428
- Growth (Fig. S2D) (MMS.0.04.): 9.974
- Growth (Fig. S2D) (Menadione.100uM): 10.6873
- Growth (Fig. S2D) (Menadione.200uM): 10.4637
- Growth (Fig. S2D) (Menadione.50uM): 10.8466
- Growth (Fig. S2D) (NaCl.0.25M): 10.8422
- Growth (Fig. S2D) (NaCl.1M): 9.66
- Growth (Fig. S2D) (Nitroquinoline.10uM): 10.7373
- Growth (Fig. S2D) (Nitroquinoline.50uM): 10.5646
- Growth (Fig. S2D) (Nystatin.0.01uM): 10.9834
- Growth (Fig. S2D) (Nystatin.0.1uM): 10.9984
- Growth (Fig. S2D) (Raffinose.2.): 11.035
- Growth (Fig. S2D) (Rapamycin.10nM): 9.895
- Growth (Fig. S2D) (Rapamycin.50nM): 9.528
- Growth (Fig. S2D) (SC.pH3): 10.4278
- Growth (Fig. S2D) (SC.pH6): 10.9986
- Growth (Fig. S2D) (SDS.0.01.): 11.0079
- Growth (Fig. S2D) (SDS.0.02.): 11.0441
- Growth (Fig. S2D) (SDS.0.05.): 10.886
- Growth (Fig. S2D) (Sorbitol.10mM): 11.0139
- Growth (Fig. S2D) (Sorbitol.1mM): 11.1055
- Growth (Fig. S2D) (Sorbitol.5mM): 10.9626
